B1: Compound 18 (peptide)
peptide: H-H[Aib]EGSFTSELATILDK([γGlu-C18 diacid])QAARDFIAWLIQHKITD-OH
SMILES: CC[C@H](C)[C@H](NC(=O)[C@H](Cc1ccccc1)NC(=O)[C@H](CC(=O)O)NC(=O)[C@H](CCCNC(=N)N)NC(=O)[C@H](C)NC(=O)[C@H](C)NC(=O)[C@H](CCC(N)=O)NC(=O)[C@H](CCCCNC(=O)CC[C@H](NC(=O)CCCCCCCCCCCCCCCCC(=O)O)C(=O)O)NC(=O)[C@H](CC(=O)O)NC(=O)[C@H](CC(C)C)NC(=O)[C@@H](NC(=O)[C@@H](NC(=O)[C@H](C)NC(=O)[C@H](CC(C)C)NC(=O)[C@H](CCC(=O)O)NC(=O)[C@H](CO)NC(=O)[C@@H](NC(=O)[C@H](Cc1ccccc1)NC(=O)[C@H](CO)NC(=O)CNC(=O)[C@H](CCC(=O)O)NC(=O)C(C)(C)NC(=O)[C@@H](N)Cc1c[nH]cn1)[C@@H](C)O)[C@@H](C)O)[C@@H](C)CC)C(=O)N[C@@H](C)C(=O)N[C@@H](Cc1c[nH]c2ccccc12)C(=O)N[C@@H](CC(C)C)C(=O)N[C@H](C(=O)N[C@@H](CCC(N)=O)C(=O)N[C@@H](Cc1c[nH]cn1)C(=O)N[C@@H](CCCCN)C(=O)N[C@H](C(=O)N[C@H](C(=O)N[C@@H](CC(=O)O)C(=O)O)[C@@H](C)O)[C@@H](C)CC)[C@@H](C)CC
B2: Compound 16 (peptide)
peptide: H-H[Aib]EGTFTSELATILDK([γGlu-C18 diacid])EAARLFIAWLIEHKITD-OH
SMILES: CC[C@H](C)[C@H](NC(=O)[C@H](Cc1ccccc1)NC(=O)[C@H](CC(C)C)NC(=O)[C@H](CCCNC(=N)N)NC(=O)[C@H](C)NC(=O)[C@H](C)NC(=O)[C@H](CCC(=O)O)NC(=O)[C@H](CCCCNC(=O)CC[C@H](NC(=O)CCCCCCCCCCCCCCCCC(=O)O)C(=O)O)NC(=O)[C@H](CC(=O)O)NC(=O)[C@H](CC(C)C)NC(=O)[C@@H](NC(=O)[C@@H](NC(=O)[C@H](C)NC(=O)[C@H](CC(C)C)NC(=O)[C@H](CCC(=O)O)NC(=O)[C@H](CO)NC(=O)[C@@H](NC(=O)[C@H](Cc1ccccc1)NC(=O)[C@@H](NC(=O)CNC(=O)[C@H](CCC(=O)O)NC(=O)C(C)(C)NC(=O)[C@@H](N)Cc1c[nH]cn1)[C@@H](C)O)[C@@H](C)O)[C@@H](C)O)[C@@H](C)CC)C(=O)N[C@@H](C)C(=O)N[C@@H](Cc1c[nH]c2ccccc12)C(=O)N[C@@H](CC(C)C)C(=O)N[C@H](C(=O)N[C@@H](CCC(=O)O)C(=O)N[C@@H](Cc1c[nH]cn1)C(=O)N[C@@H](CCCCN)C(=O)N[C@H](C(=O)N[C@H](C(=O)N[C@@H](CC(=O)O)C(=O)O)[C@@H](C)O)[C@@H](C)CC)[C@@H](C)CC
B3: Compound 13 (peptide)
peptide: H-H[Aib]EGTFSSELATILDK([γGlu-C18 diacid])LAARDFIAWLIAHKITD-OH
SMILES: CC[C@H](C)[C@H](NC(=O)[C@H](CC(C)C)NC(=O)[C@H](Cc1c[nH]c2ccccc12)NC(=O)[C@H](C)NC(=O)[C@@H](NC(=O)[C@H](Cc1ccccc1)NC(=O)[C@H](CC(=O)O)NC(=O)[C@H](CCCNC(=N)N)NC(=O)[C@H](C)NC(=O)[C@H](C)NC(=O)[C@H](CC(C)C)NC(=O)[C@H](CCCCNC(=O)CC[C@H](NC(=O)CCCCCCCCCCCCCCCCC(=O)O)C(=O)O)NC(=O)[C@H](CC(=O)O)NC(=O)[C@H](CC(C)C)NC(=O)[C@@H](NC(=O)[C@@H](NC(=O)[C@H](C)NC(=O)[C@H](CC(C)C)NC(=O)[C@H](CCC(=O)O)NC(=O)[C@H](CO)NC(=O)[C@H](CO)NC(=O)[C@H](Cc1ccccc1)NC(=O)[C@@H](NC(=O)CNC(=O)[C@H](CCC(=O)O)NC(=O)C(C)(C)NC(=O)[C@@H](N)Cc1c[nH]cn1)[C@@H](C)O)[C@@H](C)O)[C@@H](C)CC)[C@@H](C)CC)C(=O)N[C@@H](C)C(=O)N[C@@H](Cc1c[nH]cn1)C(=O)N[C@@H](CCCCN)C(=O)N[C@H](C(=O)N[C@H](C(=O)N[C@@H](CC(=O)O)C(=O)O)[C@@H](C)O)[C@@H](C)CC
B4: Compound 14 (peptide)
peptide: H-H[Aib]EGSFTSELATILDK([γGlu-C18 diacid])LAARDFIAWLIAHKITD-OH
SMILES: CC[C@H](C)[C@H](NC(=O)[C@H](CC(C)C)NC(=O)[C@H](Cc1c[nH]c2ccccc12)NC(=O)[C@H](C)NC(=O)[C@@H](NC(=O)[C@H](Cc1ccccc1)NC(=O)[C@H](CC(=O)O)NC(=O)[C@H](CCCNC(=N)N)NC(=O)[C@H](C)NC(=O)[C@H](C)NC(=O)[C@H](CC(C)C)NC(=O)[C@H](CCCCNC(=O)CC[C@H](NC(=O)CCCCCCCCCCCCCCCCC(=O)O)C(=O)O)NC(=O)[C@H](CC(=O)O)NC(=O)[C@H](CC(C)C)NC(=O)[C@@H](NC(=O)[C@@H](NC(=O)[C@H](C)NC(=O)[C@H](CC(C)C)NC(=O)[C@H](CCC(=O)O)NC(=O)[C@H](CO)NC(=O)[C@@H](NC(=O)[C@H](Cc1ccccc1)NC(=O)[C@H](CO)NC(=O)CNC(=O)[C@H](CCC(=O)O)NC(=O)C(C)(C)NC(=O)[C@@H](N)Cc1c[nH]cn1)[C@@H](C)O)[C@@H](C)O)[C@@H](C)CC)[C@@H](C)CC)C(=O)N[C@@H](C)C(=O)N[C@@H](Cc1c[nH]cn1)C(=O)N[C@@H](CCCCN)C(=O)N[C@H](C(=O)N[C@H](C(=O)N[C@@H](CC(=O)O)C(=O)O)[C@@H](C)O)[C@@H](C)CC
B5: Compound 15 (peptide)
peptide: H-H[Aib]EGTFTSELATILDK([γGlu-C18 diacid])LAARDFIAWLIAHKITD-OH
SMILES: CC[C@H](C)[C@H](NC(=O)[C@H](CC(C)C)NC(=O)[C@H](Cc1c[nH]c2ccccc12)NC(=O)[C@H](C)NC(=O)[C@@H](NC(=O)[C@H](Cc1ccccc1)NC(=O)[C@H](CC(=O)O)NC(=O)[C@H](CCCNC(=N)N)NC(=O)[C@H](C)NC(=O)[C@H](C)NC(=O)[C@H](CC(C)C)NC(=O)[C@H](CCCCNC(=O)CC[C@H](NC(=O)CCCCCCCCCCCCCCCCC(=O)O)C(=O)O)NC(=O)[C@H](CC(=O)O)NC(=O)[C@H](CC(C)C)NC(=O)[C@@H](NC(=O)[C@@H](NC(=O)[C@H](C)NC(=O)[C@H](CC(C)C)NC(=O)[C@H](CCC(=O)O)NC(=O)[C@H](CO)NC(=O)[C@@H](NC(=O)[C@H](Cc1ccccc1)NC(=O)[C@@H](NC(=O)CNC(=O)[C@H](CCC(=O)O)NC(=O)C(C)(C)NC(=O)[C@@H](N)Cc1c[nH]cn1)[C@@H](C)O)[C@@H](C)O)[C@@H](C)O)[C@@H](C)CC)[C@@H](C)CC)C(=O)N[C@@H](C)C(=O)N[C@@H](Cc1c[nH]cn1)C(=O)N[C@@H](CCCCN)C(=O)N[C@H](C(=O)N[C@H](C(=O)N[C@@H](CC(=O)O)C(=O)O)[C@@H](C)O)[C@@H](C)CC
B6: Compound 17 (peptide)
peptide: H-H[Aib]EGTFSSELATILDK([γGlu-C18 diacid])QAARDFIAWLIQHKITD-OH
SMILES: CC[C@H](C)[C@H](NC(=O)[C@H](Cc1ccccc1)NC(=O)[C@H](CC(=O)O)NC(=O)[C@H](CCCNC(=N)N)NC(=O)[C@H](C)NC(=O)[C@H](C)NC(=O)[C@H](CCC(N)=O)NC(=O)[C@H](CCCCNC(=O)CC[C@H](NC(=O)CCCCCCCCCCCCCCCCC(=O)O)C(=O)O)NC(=O)[C@H](CC(=O)O)NC(=O)[C@H](CC(C)C)NC(=O)[C@@H](NC(=O)[C@@H](NC(=O)[C@H](C)NC(=O)[C@H](CC(C)C)NC(=O)[C@H](CCC(=O)O)NC(=O)[C@H](CO)NC(=O)[C@H](CO)NC(=O)[C@H](Cc1ccccc1)NC(=O)[C@@H](NC(=O)CNC(=O)[C@H](CCC(=O)O)NC(=O)C(C)(C)NC(=O)[C@@H](N)Cc1c[nH]cn1)[C@@H](C)O)[C@@H](C)O)[C@@H](C)CC)C(=O)N[C@@H](C)C(=O)N[C@@H](Cc1c[nH]c2ccccc12)C(=O)N[C@@H](CC(C)C)C(=O)N[C@H](C(=O)N[C@@H](CCC(N)=O)C(=O)N[C@@H](Cc1c[nH]cn1)C(=O)N[C@@H](CCCCN)C(=O)N[C@H](C(=O)N[C@H](C(=O)N[C@@H](CC(=O)O)C(=O)O)[C@@H](C)O)[C@@H](C)CC)[C@@H](C)CC

Numbered stars: 1 amine (or outer) side, 2 acyl side, 3 side chain; on linkers, the order of the positions; unused ones are H or OH. Square brackets hold non-standard residues; d marks the D form. Side chains are listed from the residue outwards. * marks the point of attachment. C18 diacid = O=C(O)CCCCCCCCCCCCCCCCC(=O)*; γGlu = O=C(O)[C@H](CCC(=O)[*:2])N[*:1]; Aib = CC(C)(N)C(=O)O

The first test addresses T1, human GLP-2 receptor (hGLP2-R) (human, UniProt O95838).
T1 sequence: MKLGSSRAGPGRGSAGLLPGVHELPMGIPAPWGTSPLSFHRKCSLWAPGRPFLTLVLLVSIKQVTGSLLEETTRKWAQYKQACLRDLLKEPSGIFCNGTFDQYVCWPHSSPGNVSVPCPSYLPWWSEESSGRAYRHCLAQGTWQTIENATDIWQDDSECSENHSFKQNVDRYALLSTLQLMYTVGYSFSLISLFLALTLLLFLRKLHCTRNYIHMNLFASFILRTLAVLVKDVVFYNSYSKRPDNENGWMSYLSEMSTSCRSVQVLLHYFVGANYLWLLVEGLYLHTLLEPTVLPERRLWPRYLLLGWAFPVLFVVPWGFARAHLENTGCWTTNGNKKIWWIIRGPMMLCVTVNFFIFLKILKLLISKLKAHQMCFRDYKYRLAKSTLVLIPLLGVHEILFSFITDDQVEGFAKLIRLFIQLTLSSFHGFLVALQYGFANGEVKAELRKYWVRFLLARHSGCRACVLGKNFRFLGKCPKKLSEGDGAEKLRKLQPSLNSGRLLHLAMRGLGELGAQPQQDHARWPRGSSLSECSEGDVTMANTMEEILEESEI
The test is described as follows: cell-based or functional assay.
With B1, the “EC50 GLP-2 (nM), cAMP AlphaScreen” value was determined as 0.21 nM.
As to B2, the “EC50 GLP-2 (nM), cAMP AlphaScreen” value turned out to be 0.68 nM.
The same measure, in the same setting: for B3 the value was 0.099 nM.
On the same count and under the same terms, the result for B4 reads 0.086 nM; that for B5, 0.16 nM; that for B6, 0.33 nM.

A further test deals with human glucagon-like peptide 1 receptor (GLP-1R) (human, UniProt P43220). The test is described as follows: cell-based or functional assay.
As to B1, the “EC50 GLP-1 (nM), cAMP AlphaScreen” value is 0.19 nM.
For the molecule B2, the “EC50 GLP-1 (nM), cAMP AlphaScreen” value is 0.073 nM.
Turning to B3, the “EC50 GLP-1 (nM), cAMP AlphaScreen” value stood at 2.2 nM.
With B4, the “EC50 GLP-1 (nM), cAMP AlphaScreen” value came out at 0.57 nM.
B5: the “EC50 GLP-1 (nM), cAMP AlphaScreen” value stood at 0.25 nM.
As to B6, the “EC50 GLP-1 (nM), cAMP AlphaScreen” value came out at 0.9 nM.

Source of the values: patent US20250073311A1, “DOSAGE REGIME” (ZEALAND PHARMA A/S, priority 2021, published 2025).
